{
  "source": "paper PMC9929655",
  "about": "(The Journal of Cell Biology, 2023)",
  "binders": {"B1": {"name": "GST-Exo84 (aa 1–326) (domain or fragment)", "chain": "MVEFSLKKARNNWKHVKKSASSPAKQKTPPSPAKPKQKTKKNPYSDLKDPATSYTLPTINARERSRVATSMQRRLSIHNTNYAPPTLDYSMPLPDMPNMIVPNDNVDSSHNNSSFTTENESVSSKGPSNSLNLSTADLSLNDSSYNKVPARSAMRNTVNPSGSNDPFNNSTSLRKMLANPHFNAKDFVHDKLGNASAITIDKFTSNLTDLSIQVQEEVKLNINKSYNEIMTVNNDLNVAMLELKRVRANINDLNEVLDQCTKIAEKRLQLQDQIDQERQGNFNNVESHSNSPALLPPLKAGQNGNLMRRDRSSVLILEKFWDTELD"}, "B2": {"name": "C-terminally tagged GST-Sro7-NT (aa 1–79) (domain or fragment)", "chain": "MFGSKRLKNVKEAFKSLKGQNSETPIENSKASFKSKNSKTSTISKDAKSSSSLKIPISSNNKNKIFSLAETNKYGMSSK"}, "B3": {"name": "His-tagged Sro7-NT (aa 1–90) (domain or fragment)", "chain": "MFGSKRLKNVKEAFKSLKGQNSETPIENSKASFKSKNSKTSTISKDAKSSSSLKIPISSNNKNKIFSLAETNKYGMSSKPIAAAFDFTQN"}},
  "test_in_all_cases": "pull-down",
  "key": {"Sro7 (full length)": {"target": "T1, Sro7 (full length) (yeast, UniProt Q12038 1-1033)", "T1 sequence": "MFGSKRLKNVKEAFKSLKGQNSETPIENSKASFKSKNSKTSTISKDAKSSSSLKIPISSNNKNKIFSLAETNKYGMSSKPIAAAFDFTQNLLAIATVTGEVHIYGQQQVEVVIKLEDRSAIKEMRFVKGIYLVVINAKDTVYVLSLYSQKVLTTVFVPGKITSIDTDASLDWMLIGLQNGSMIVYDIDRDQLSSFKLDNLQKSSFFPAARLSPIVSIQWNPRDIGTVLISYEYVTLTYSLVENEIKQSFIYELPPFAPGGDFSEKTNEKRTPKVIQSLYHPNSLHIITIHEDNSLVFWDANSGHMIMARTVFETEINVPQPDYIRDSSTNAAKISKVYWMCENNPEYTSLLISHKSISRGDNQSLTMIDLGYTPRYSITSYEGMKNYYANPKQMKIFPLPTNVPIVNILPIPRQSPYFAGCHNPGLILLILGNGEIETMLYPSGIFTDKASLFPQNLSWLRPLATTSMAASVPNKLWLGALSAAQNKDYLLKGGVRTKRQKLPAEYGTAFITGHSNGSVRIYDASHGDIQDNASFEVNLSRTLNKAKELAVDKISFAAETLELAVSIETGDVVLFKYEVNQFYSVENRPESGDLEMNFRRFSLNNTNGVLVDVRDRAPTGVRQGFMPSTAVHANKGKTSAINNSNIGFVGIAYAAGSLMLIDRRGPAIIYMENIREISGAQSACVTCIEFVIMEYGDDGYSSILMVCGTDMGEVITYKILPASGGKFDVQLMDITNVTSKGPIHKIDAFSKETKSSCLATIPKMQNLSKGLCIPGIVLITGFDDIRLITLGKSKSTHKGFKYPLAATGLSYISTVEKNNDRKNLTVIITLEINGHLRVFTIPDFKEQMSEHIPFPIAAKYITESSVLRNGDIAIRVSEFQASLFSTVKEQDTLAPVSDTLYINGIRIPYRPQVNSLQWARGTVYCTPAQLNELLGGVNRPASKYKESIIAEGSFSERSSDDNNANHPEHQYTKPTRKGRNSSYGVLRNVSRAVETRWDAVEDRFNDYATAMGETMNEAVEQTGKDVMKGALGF"}, "[1]": {"target": "His-tagged Exo84 (aa 1–326) (S. cerevisiae, UniProt P38261 1-326)"}, "GST-Exo84 (aa 1–326)": {"target": "B1"}},
  "data": [
    {"binder": "B1", "values": [
      {"measurement": "binding result", "setting": "Sro7 (full length)", "value": "binds"}
    ]},
    {"binder": "B2", "values": [
      {"measurement": "binding result", "setting": "[1]", "value": "binds"}
    ]},
    {"binder": "B3", "values": [
      {"measurement": "binding result", "setting": "GST-Exo84 (aa 1–326)", "value": "binds"}
    ]}
  ]
}
